In patent publication US20040180409:

Test system: T1, epitope-tagged (V5) full-length murine TLT-1 (TREM-like transcript-1) expressed in HEK293T cells
T1 sequence: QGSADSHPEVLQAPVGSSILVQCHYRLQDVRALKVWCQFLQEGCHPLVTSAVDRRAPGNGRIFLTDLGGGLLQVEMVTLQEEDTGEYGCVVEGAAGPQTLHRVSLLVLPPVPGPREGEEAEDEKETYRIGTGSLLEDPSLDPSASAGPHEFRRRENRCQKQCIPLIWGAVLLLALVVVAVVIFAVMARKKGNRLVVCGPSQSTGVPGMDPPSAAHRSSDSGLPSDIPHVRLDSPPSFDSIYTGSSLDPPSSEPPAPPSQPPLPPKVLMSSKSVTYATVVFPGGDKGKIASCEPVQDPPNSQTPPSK

Substance: Syk
- tyrosine phosphorylation of TLT-1 (anti-V5 immunoprecipitation, antiphosphotyrosine immunoblot): TLT-1 is phosphorylated by Src but not Syk
